# Data taken from WO2021212049A2.
# B1: mAb 2H04 (antibody)
# chain 1: EVQLQQSGAELVKPGASVKMSCKASGYTFTSYWITWVKQRPGQGLEWIGDIYPGSGSTKYNEKFRSEATLTVDTSSTTAYMQLSSLTSEDSAVYYCARWDFYGSRTFDYWGQGTTLTVSS
# chain 2: DIVLTQSPAILSVSPGERVSFSCRASQNIGTIIHWYQQRTNGSPRLLIKYASESVSGIPSRFSGSGSGTDFTLSINSVESEDIADYYCQQSSSWPLTFGAGTKLELK
# Target: recombinant SARS-CoV-2 S protein ectodomain (residues 14-1211), 2P, furin site mutated, foldon, 8XHis (SARS-CoV-2), P0DTC2
# Test: ELISA on coated antigen, anti-human IgG-HRP
# Conditions: remark: other sources report otherwise
binder,measurement,value
B1,minimum positive concentration,< 5 µg/mL
